Reference: publication PMC10042821, “Cryo-EM structure of human eIF5A-DHS complex reveals the molecular basis of hypusination-associated neurodegenerative disorders” (Nature Communications, 2023)

Assays:
Assay in all cases: MST; His-tagged DHS variants labelled with RED-tris-NTA 2nd Generation, 8.32 nM; eIF5A titrated, sixteen dilutions 0.00175–57.5 μM; 50 mM Tris, 200 mM NaCl, 5 mM β-ME pH 8; Monolith NT.115, 40% excitation power, 60% MST power; no NAD or SPD
Settings in all cases: both partners purified
[1] = biological target: T1, deoxyhypusine synthase I271A, His-tagged (human, UniProt P49366 1-369, I271A, RED-tris-NTA 2nd Generation dye on the His tag)
T1 construct: human deoxyhypusine synthase, Uniprot P49366, residues 1-369, site-directed mutant of the pET24d full-length construct; also called DHS I271A; source: E. coli, purified; not shown: 6xHis, N-terminal, kept
T1 sequence (looked up): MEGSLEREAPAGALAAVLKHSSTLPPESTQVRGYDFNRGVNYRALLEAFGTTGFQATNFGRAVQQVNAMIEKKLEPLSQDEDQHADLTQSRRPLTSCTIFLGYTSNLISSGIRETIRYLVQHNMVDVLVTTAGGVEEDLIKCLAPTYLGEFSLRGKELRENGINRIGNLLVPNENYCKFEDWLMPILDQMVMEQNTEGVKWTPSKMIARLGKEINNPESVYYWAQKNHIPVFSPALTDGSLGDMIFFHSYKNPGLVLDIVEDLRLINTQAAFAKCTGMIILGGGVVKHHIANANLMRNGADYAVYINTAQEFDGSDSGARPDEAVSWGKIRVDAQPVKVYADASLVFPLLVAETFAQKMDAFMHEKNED

[2] = biological target: T2, deoxyhypusine synthase Q83A, His-tagged (human, UniProt P49366 1-369, Q83A, RED-tris-NTA 2nd Generation dye on the His tag)
T2 construct: human deoxyhypusine synthase, Uniprot P49366, residues 1-369, site-directed mutant of the pET24d full-length construct; also called DHS Q83A; source: E. coli, purified; not shown: 6xHis, N-terminal, kept
T2 sequence (looked up): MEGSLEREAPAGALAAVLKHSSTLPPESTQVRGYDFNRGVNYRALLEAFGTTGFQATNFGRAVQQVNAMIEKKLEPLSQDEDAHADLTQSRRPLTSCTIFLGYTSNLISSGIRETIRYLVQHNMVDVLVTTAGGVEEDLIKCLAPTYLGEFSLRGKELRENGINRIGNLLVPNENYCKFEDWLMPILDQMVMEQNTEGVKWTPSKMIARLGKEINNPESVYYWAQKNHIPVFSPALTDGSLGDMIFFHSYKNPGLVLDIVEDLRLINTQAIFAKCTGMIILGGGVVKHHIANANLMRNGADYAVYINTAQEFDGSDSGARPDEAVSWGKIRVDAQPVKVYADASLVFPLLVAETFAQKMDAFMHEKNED

[3] = biological target: T3, deoxyhypusine synthase L295A, His-tagged (human, UniProt P49366 1-369, L295A, RED-tris-NTA 2nd Generation dye on the His tag)
T3 construct: human deoxyhypusine synthase, Uniprot P49366, residues 1-369, site-directed mutant of the pET24d full-length construct; also called DHS L295A; source: E. coli, purified; not shown: 6xHis, N-terminal, kept
T3 sequence (looked up): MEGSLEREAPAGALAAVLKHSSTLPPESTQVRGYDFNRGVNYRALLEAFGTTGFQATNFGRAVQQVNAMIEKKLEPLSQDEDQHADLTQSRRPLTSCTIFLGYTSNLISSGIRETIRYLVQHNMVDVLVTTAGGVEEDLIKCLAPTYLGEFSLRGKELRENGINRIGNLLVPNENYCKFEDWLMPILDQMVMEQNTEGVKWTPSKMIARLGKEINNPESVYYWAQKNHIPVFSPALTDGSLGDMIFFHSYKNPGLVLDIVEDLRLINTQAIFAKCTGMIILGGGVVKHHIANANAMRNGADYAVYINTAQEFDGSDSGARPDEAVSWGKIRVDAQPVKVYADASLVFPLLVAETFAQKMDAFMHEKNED

[4] = biological target: T4, deoxyhypusine synthase M244A, His-tagged (human, UniProt P49366 1-369, M244A, RED-tris-NTA 2nd Generation dye on the His tag)
T4 construct: human deoxyhypusine synthase, Uniprot P49366, residues 1-369, site-directed mutant of the pET24d full-length construct; also called DHS M244A; source: E. coli, purified; not shown: 6xHis, N-terminal, kept
T4 sequence (looked up): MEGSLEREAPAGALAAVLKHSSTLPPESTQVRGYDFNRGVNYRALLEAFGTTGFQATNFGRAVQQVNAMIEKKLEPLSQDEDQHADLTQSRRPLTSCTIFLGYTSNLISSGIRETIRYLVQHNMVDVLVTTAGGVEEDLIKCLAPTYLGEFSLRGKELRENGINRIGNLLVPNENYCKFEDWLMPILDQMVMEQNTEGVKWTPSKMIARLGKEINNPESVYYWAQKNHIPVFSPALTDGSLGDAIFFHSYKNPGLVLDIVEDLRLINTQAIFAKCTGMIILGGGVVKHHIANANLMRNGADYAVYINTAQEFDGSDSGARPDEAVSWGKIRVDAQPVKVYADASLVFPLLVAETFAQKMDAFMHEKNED

Kd [1]: 56 ± 16 nM | Kd [2]: > 5 µM | Kd [3]: 393 ± 107 nM | Kd [4]: > 5 µM
B1: eukaryotic translation factor 5A (eIF5A-1), residues 15-151 (domain or fragment)
chain: not shown
notes: human eIF5A1, residues 15-151, from pET28-MHL (Addgene); The purification protocol removes the tag with TEV; source: E. coli, purified (HisTrap, TEV cleavage, reverse HisTrap, SEC); not shown: His tag, N-terminal, cleaved
